# Test results published in patent publication US9079867B2, “Polyazamacrocyclic compound, and a production method and a biomedical use therefor” (KYUNGPOOK NATIONAL UNIVERSITY INDUSTRY-ACADEMIC COOPERATION …, priority 2010, dated 2015).
# Tests used:
# [1] = Cyclic voltammetry (electrochemical experiment); type: physicochemical; conditions: irreversible (irrev); 2 mM, 100 mV/s, 0.1 M sodium acetate pH 7.0, glassy carbon electrode
# Description: Cyclic voltammetry was carried out by using biological model SP-150 having a 3-electrode structure. The working electrode was made of glassy carbon (diameter=3 mm), the reference electrode Ag/AgCl (saturated KCl), and the counter electrode Pt wire. A sample (2 mM) of compound (30) was operated at a scanning speed of 100 mV/s in a 0.1 M aqueous sodium acetate solution adjusted to pH 7.0 with glacial acetic acid. From the solution, oxygen was removed by bubbling Ar for 30 minutes. During the measurement, the system was maintained under Ar atmosphere.
# in vivo = experiment: in vivo; parameters: species or system female nude mice; conditions: female, nude, mouse, iv, 10 uCi, total radioactivity
# Description: Compound ^64Cu-TE2A-c(RGDyK) (38) (10 μCi) in PBS (120 μl) was injected to the tails of female nude mice to which U87MG tumor had been transplanted. Two groups were examined at two time points [n=4 per group at 1 hr and 4 hr post injection (pi)]. The subject animals were sacrificed, and the relevant tissues and organs were removed and weighed. A dosimetric procedure was carried out by using a gamma-counter. The calculations were performed by comparing with a reference value of which the percentage of injected amount per gram was known.
smiles,measurement,setting,value
O=C([O-])CN1CCCNCCN(CC(=O)[O-])CCCNCC1.[Cu+2] [Cu-TE2A],Ered (V) for Ag/AgCl,[1],−1.05 (irrev) V
"N=C(N)NCCC[C@@H]1NC(=O)[C@H](CCCCNC(=S)Nc2ccc(CCN3CCCN(CC(=O)O)CCNCCCN(CC(=O)O)CC3)cc2)NC(=O)[C@@H](Cc2ccc(O)cc2)NC(=O)[C@H](CC(=O)O)NC(=O)CNC1=O [^64Cu-TE2A-c(RGDyK), metal not drawn]",tissue uptake at 1 h,in vivo; % ID/g Blood,0.55 ± 0.18 %ID/g
same,tissue uptake at 4 h,in vivo; % ID/g Blood,0.43 ± 0.09 %ID/g
same,tissue uptake at 1 h,in vivo; % ID/g Bone,0.66 ± 0.23 %ID/g
same,tissue uptake at 4 h,in vivo; % ID/g Bone,0.41 ± 0.06 %ID/g
same,tissue uptake at 1 h,in vivo; % ID/g Fat,1.28 ± 0.55 %ID/g
same,tissue uptake at 4 h,in vivo; % ID/g Fat,1.15 ± 1.08 %ID/g
same,tissue uptake at 1 h,in vivo; % ID/g Intestine,2.14 ± 0.53 %ID/g
same,tissue uptake at 4 h,in vivo; % ID/g Intestine,2.17 ± 0.62 %ID/g
same,tissue uptake at 1 h,in vivo; % ID/g Kidney,3.47 ± 0.61 %ID/g
same,tissue uptake at 4 h,in vivo; % ID/g Kidney,2.71 ± 0.45 %ID/g
same,tissue uptake at 1 h,in vivo; % ID/g Liver,5.45 ± 1.14 %ID/g
same,tissue uptake at 4 h,in vivo; % ID/g Liver,4.45 ± 0.65 %ID/g
same,tissue uptake at 1 h,in vivo; % ID/g Lung,1.46 ± 0.34 %ID/g
same,tissue uptake at 4 h,in vivo; % ID/g Lung,1.14 ± 0.17 %ID/g
same,tissue uptake at 1 h,in vivo; % ID/g Muscle,0.49 ± 0.3 %ID/g
same,tissue uptake at 4 h,in vivo; % ID/g Muscle,0.24 ± 0.11 %ID/g
same,tissue uptake at 1 h,in vivo; % ID/g Spleen,1.17 ± 0.46 %ID/g
same,tissue uptake at 4 h,in vivo; % ID/g Spleen,1.04 ± 0.46 %ID/g
same,tissue uptake at 1 h,in vivo; % ID/g Stomach,1.78 ± 0.55 %ID/g
same,tissue uptake at 4 h,in vivo; % ID/g Stomach,1.03 ± 0.39 %ID/g
same,tissue uptake at 1 h,in vivo; % ID/g Tumor 1,2.98 ± 0.39 %ID/g
same,tissue uptake at 4 h,in vivo; % ID/g Tumor 1,3.01 ± 1 %ID/g
same,tissue uptake at 1 h,in vivo; % ID/g Tumor 2,3.49 ± 1.67 %ID/g
same,tissue uptake at 4 h,in vivo; % ID/g Tumor 2,3.32 ± 0.49 %ID/g
